Measurements: article PMC12548415 (2025)

Key:
[1] = biological target: wild-type raccoon dog parvovirus strain RDPV/FLD/2010, capsid of VP2 (raccoon dog parvovirus, strain …); test: BLI
[2] = biological target: wild-type raccoon dog parvovirus strain RDPV/CL/2016, capsid of VP2 (raccoon dog parvovirus, strain …); test: BLI

B1: raccoon dog transferrin receptor ectodomain (recombinant RDTfR, from residue 121, C-terminal 6x His) (receptor)
chain: EEYFPETPSRLFWTDLKTMLSERLSNTDFTNTMRWLNENSYVPREAGSQKDESLALLIENRFREFQLSKSWRDEHFVKIQVKSSNAQNTVTIVGTESGLVYLVENPEGYVAYSKATTVTGRLVHVNFGTKKDFENLKSPVNGSLVIARAGKITFAEKVANAQSYNALGVLIYMDQARFPIVNAQIPFFGHAHLGTGDPYTPGFPSFNHTQFPPSQSSGLPSIPVQTIPRAVAEKLFENMEGDCPSAWEIDPSCRLETSPNKNVKLTVNNVLKEIRIFNIFGVIKGFEEPDRYVVIGAQRDAWGPGAAKSSVGTALLLELARIFSDMVLKGGFKPSRSIVFASWSAGDFGAIGATEWLEGYLSSLHLKAFTYINLDKAILGTSNFKVSASPLLYSLLEKTMKDVKHPITGQSLYRDSNWINKVEKWSLDNAAFPFLAYSGIPAVSFCFCEDTDYPYLGTTMDLYENLNQKIPQLNKMARGAAEVAGQLIIKLTYDLELNLNYEMYNDKILSFVRDMNQFRTDLKEMGLNLQWLYSARGDFFRATSRLTTDYKNAERTNRFVMREINDRIMKVEHNFLSPYVSPRDSPFRHIFWGSGSHTLPALVEHLKLRQKNNSAFNETLLRNQLALATWTIQGAANALSGDIWDIDNEL
- koff [1]: 0.0126 s⁻¹
- koff [2]: 0.00441 s⁻¹
